Laboratory results taken from a protein production outcome set (Wang et al. 2014).
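Also: failed if final PepcDB status was selected cloned or expressed and not failed if soluble or beyond.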

Test: label from the status in PepcDB records
With “MITTFKCVLVTKNIRMNERLMNSQSGYLRKAVNHPINWYTWSNDVFEIAKKENKPILIDVGAAWCHWCNVMDEDTYSNPEIAKIVNENFIPVKVDRDEMPDLDRLLQNAAMAITGESGWPLTIFMTPEGKVFFGGTYFPPEDRYGRIGFKRLLLEILRIWREDRNQILLSS” the protein production was “failed”.
In the case of “MITTIPWKATQAQPNAFPERQALMPVWEGEAIPQAEWQQCWQQAAINVLKEDGLAYFHIPFCASHCIFCGFYRNAWKEDYSKVYTDKLIEELAYEASIRQGNGKIQAVYFGGGTPTALATEDLVRLIKACYQYLPLATDCEFTLEGRISHFDIEKARACVEAGVNRISIGVQTFNSAIRKRLGRKHSGEEAYAYLQALCELDAVIVADLIFGLPNQTDEVWANDINVASGLPLSGLDIYAFNNYPFLPINKMIEHGTLPPAASFEVQAQHYAYAVENLQQAGWTQVSNNHFAFPGRGERNRYNTLVKSNMPCLAFGSGAGGNFSGYSFQVDTTLQTYLDTPADKKALSYLSKQGPNKQLLGIVQHDLELGYLDIKLFRDNPKAMKLLMQWQQLSLLNIDANGIACLNISGRYWSPTLIRKLMLTLPTHDEKEHKMVKLSEQQLAELRQSLAENPGQILEMVAGMKQCSFEEVISCLPQEMITKTDGSRFVEIMQALATLEDAVTFIAHTADAIVEVTGKLPSGQIGRGFYNFDHTHEGGVHGHLRYENCAAIYLLERPFMGKHTVSLNFVNHQGGAMFKIFVGRDAERNLRQNQIDFMRQLIKG”, the protein production is reported as “failed”.
In the case of “MITVLILRCIMVKSTTRKSAKSDRRRYNRIARFYDLFETPMELMNFRKWRKMLFDLIKAEKGLVLEIGAGTGKNIPHYPSNVVALDISEKMLERAVRRAKESGKKVDFLLADAENLPFRSNSFDVVFTTFVFCSVDDPVRGLREAFRVLKKGGRAYFLEHMLPKSRFLHPLFNLLNPIFRAFGPEINRRTDENIQRAGFQIVKEYMLFGSVFRLIVAEKPLDSVDEASGYSLKRSESSDSSNFRRFIGQSLLPLRLTQLLR”, the protein production is reported as “failed”.
For “MIVEVLIRVFFLICTAALGWGAGYILKLSSKEISSLLVYVISPFVIFVSILQSPADWTYFAYSLGALLTASVAAFLAYGLARMIWSDGRVNLFSFAAGTGNTGYFALPLAFALFNAQQIAIAVFIIIGINIYEFTVGYFIAAKGTFKTTDSLQKIVRLPILYAIILGMTFKKWGIDVGATLLSAMSNFKGAYSVLGMMVIGVTLASYQKIKIDWGFLIATLTWKHLIYPAVGVLIFYFITPVSIDTLAVIVMMLATPMAANTVVVANTLNLYPEKAAFSVMVSTFLAVVTVPLAIVWVTRLSR”, the protein production was “failed”.
In the case of “MIVKEDSVEAVGAQLKVYHQQYQDKSREYDQLYEEYTRTSQELQMKRTAIEAFNETIKIFEEQGQTQEKCSKEYLERFRREGNEKEMQRILLNSERLKSRIAEIHESRTKLEQQLRAQASDNREIDKRMNSLKPDLMQLRKIRDQYLVWLTQKGARQKKINEWLGIKNETEDQYALMEDLEHHHHHH”, the protein production is reported as “failed”.
For “MIVPYSVEDILKDGCFLERAEIDRLLDRLRTKKNLILQGPPGTGKTWLAKRLAFALMGQKDDSKVRAVQFHPNLSYEDFVRGWRPTGEGKLSLADGVFMEAIKAASKDPSSKFVVVIEEINRGNPAQIFGELLTLLEAGKRTPNEALELCYPDADGKRRPVHIPENLYVVGTMNIADRSLALVDLALRRRFAFVGLEPRLGQVWRDWVVKECAVDPLEHHHHHH”, the protein production was “failed”.
In the case of “MIVRGGGDLATGVIQKLWHVGFKILVLETECPLAIRRTVSVCDAIFQKEQRVEDLVAVRITSLKDCAKCWQQNKLPVFVDQTASAIQQLKPLIVIDAILAKKNLGTHRGMAPITIALGPGFSAPQDVDVVIETMRGHRLGRLYFEGTALPNTGIPGEIGGKSAERVVHAPASGQVTHLKNIGDLVLKGEALFLIDQVPVYSPLTGTLRGLISEKVTCYQGLKCADVDPRPVEKVDCLTISDKARALGGAVLEAIFMIGRRKNVLLEHHHHHH”, the protein production is reported as “not failed”.
For “MIVRMRSCAQAAKVAEATGGVQLAGKPKPDGTPTFSRYVEIGVDFEAHRPVVESVSVLFELYDGDANSYAATGGPGAQLPSGWMVTAAKFEVEWPADPQRAGLVRSHFGARRKAFNWGLAQVKADLDAKAADPAHESVDWDLKSLRWAWNRAKDDVAPWWAENSKECYSSGLADLAQGLANWKAGKNGTRKGRRVGFPRFKSGRRDPGRVRFTTGTMRIEDDRRTITVPVIGPLRAKENTRRVQRHLVSGRAQILNMTLSQRWGRLFVAVCYALRTPTTRSPLTQPTVRAGMDLGVRTLATVATLDTATGEQTIIEYPNPAPLKATLVARRRAGRELSRRIPGSHGHRAVKAKLARLDRRCVHLRREAAHQLTTELAGTYGQVVIEDLDVAAMKRSMRRRAFRRSVSDAAMGLVAPQLAYKTAKCSGVLTVADRWFASSQIHHGCTSPDGTPCRLQGKGRIDKHLLCPVTGEVVDRDRNAALNLRDWPDNASRGPVGTTAPSAPGPTTTVGTGHGADTGSSGAGGASVRPRPRRAGRGEAKTQTPQGDAA”, the protein production was “failed”.
For “MIWQLIDKHRQSFGVEPLCRVLQVSPSAYRRHAARLRDRSRRSARAIRDEELAVQIHRVWQENYEVYGARKVWRQMHREHQVVARCTVERLMREMGLCGVTRGKTVKTTQPDPDNANPRDLVKRQFTAERPNQLWVADFTFVSTWQGFAYVAFIVDVYSRFIVGWRVSRHMRTEFVLDALEQALHTRRPEPHRLVHHSDRGSQYLSIRYSERLGEAGIEPSVGNTGDSYDNALAETINGLYKTELIHKRGPWKSVDSLEWETLKWVTWFNHQRLLEPIGNRPPAEFEALYEQSQATISVAA”, the protein production was “failed”.
For “MIYKITLTDISLAQAFISIPQDVIALDLSNNLLGSKSCVDLLVNIADCIPAGVTSLDLSSNGLRLTQVSLVTPKHVTSLNLCFNPLHEISIDGLEWLKDSLAHIQIIYLSYDMVNNMSREQRQAFRAVIPNIQTIILVDKNGKEIGPSHTAKIANLISELGGGNPEVPSLLNQCTFFVKTQGINIDKAYIPEELKKRIHDCNPL”, the protein production was “failed”.
With “MIYPDELAVITSKFELELSETDRNKVHENVSTVSGRDFFMSIFEGLKMKDKILEYWDFRSSDYHTEYAHCMDEEMDVWKSVFSEILLTDKKVRAVEVGTGPGILAISLAAMGHDVTGVDLSENMLEKAAANAREKGVNVLLMRGDAEDIPLKDGEYDFVLSKYLLWTLPQPDKFLGECCRLLKDGGIMMIIDGLWFHNPDGTEKKSSRYERFDELYGDVKPNLPFAKENTPERIADLAESHGFEDLTWRFLDDYDAFLERNDPSGHAAAYIKPPHMILAKKKVRNS” the protein production was “failed”.
With “MIYSKVENFINENKQNAIFTEGASHENIGRIEENLQCDLPNSYKWFLEKYGAGGLFGVLVLGYNFDHASVVNRTNEYKEHYGLTDGLVVIEDVDYFAYCLDTNKMKDGECPVVEWDRVIGYQDTVADSFIEFFYNKIQEAKDDWDEDEDWDD” the protein production was “not failed”.
In the case of “MKAALLDQVARVGKALANGRRLQILDLLAQGERAVEAIATATGMNLTTASANLQALKSGGLVEARREGTRQYYRIAGEDVARLFALVQVVADEHLEHHHHHH”, the protein production is reported as “not failed”.
In the case of “MKAIMRRLIMTNFFNTPLFGLTLSVLAYTLGLSLYRRFPNPLTTPLLVSTALIIVILHYTGICYRDYYVGGSYLNSLIIPSTVALAVPFYKNLHLMRHHCKSILIGSTVACILNTTYTALIAKLFGMDYFLAISLFPKSVTTAMAVGISEKMQGITTVTLVVVVITGILTSVLGPVFLKMIGIKDPVAIGLSLGGTGHAVGTGTAFRYGQVAGAMGGLSIAVTGILYVFISPIVASLILR”, the protein production is reported as “failed”.
For “MKAIRRFTVRPVLPDALHPLSDLARNLRWSWHAETRELFQSVDPERWAASDGDPVRLLGSVPHARLAELAEDRRFLRRLGAAADDLTDYVTGDRWYQSQAEAPSRAAELPAAIAYFSPEFGVTAALPQYSGGLGILAGDHLKAASDLGVPLIGVGLLYRHGYFRQSLSRDGWQQEHYPVLDPHELPVVPLREDDGALAQVSLALPGGRRLQARIWLAQVGRVPLLMLDSDVEENDHGERGVTDRLYGGGSEHRLLQEMLLGIGGVRAVRTYCRLTGHAEPEVFHTNEGHAGFLGLERIAELCDTGLDFDAGLESVRAGTVFTTHTPVPAGIDRFDRELVARHFGPDAELPRIDVERILGLGMETYPGGEPNLFNMAVMGLRLGQRANGVSLLHGQVSREMFSGLWPGFDPDEVPITSVTNGVHAPTWVAPEVFRLGARQIGAQRTEDAMTVGGSERWDAVAEIPDQDIWDLRRVLREQLVTEVRERLRASWRQRGAGTAELGWIDGVLDPDVLTIGFARRVPSYKRLTLMLRDRDRLMDLLLHPERPVQIVVAGKAHPADDGGKRLVQELVRFADDPRVRHRIVFLPDYGMAMAQKLYPGCDIWLNNPLRPLEACGTSGMKAALNGCLNLSVLDGWWDEWFQPDFGWAIPTADGTATDEDRRDDLEATALYDLLEGRVAPRFYERGQAGLPDRWIEMVRQTLTHLGPKVLAGRMVREYVERLYTPAALAHRALTPEPARELATWKSRVRAAWPRVTVDHVETSVATTTAELGTTLSLRVRVGLGDLDPDDVEVQAVAGRVDGQDRITDATAVPLKPVGGPDLEGRRVYEGPLSLDRTGPFGYTVRILPTHRLLATSAELGLVAVPSEDVGEGAGVLLR”, the protein production was “failed”.
For “MKALNDLNIFVETARQGSFSKAANSMDMTPAAISASIKRLEGQIGFPLFVRSTRSLRLTSEGELFLDKTTQALATLQEGLDQISSARGELSGQLHITAPSDFGRNMLLDWVDEFIDLYPNVSIKLELSDSLTDMYTKPVDIAIRYGEPADSNLVVLALCGSNERILCASPEYVATHPELTSPADLTQHNCLCYMVADSVYNKWTLTRDGEKEQVVVSGNLMSNDSDLPHRLAIKGKGIANKSLMDISRDLIEGRLVRVLPEWDSGPVPLYMVCADRRLLTPTIRTFRDFIQQKCCQQRANVLATFCH”, the protein production was “failed”.
In the case of “MKALNKIRYAFLVCTLMVLVTLAGCNSADRSAEPPQSSHQGSEQEGAKKTPLNVEVFNLGERSMFAVSSVLVTGTADAILIDTQFSAADARQLVDKIKASGKRLKAIYISHGDPDYYFGLDSVHAAFPEAKVFATPQTIAHIQATKDAKLKLWAPQLGQDAPKQILIPEPMQGDQLVLEGQELRIIGMDGPTPDRTFVWIPSSRTVAGGISVMGAQHVWMADTQTPQSHMEWLAVLDRIKSMDPKVVVPGHFLPGASLDVRSVTFTADYIRAFDEETVKAKDSAALIAAMKQRYPGLGGEGSLELSAKVAKGEMEWK”, the protein production is reported as “failed”.
In the case of “MKASFKGKFDVDKSGSVASLTFNAGNAKLRATMTDASFVAGPSFNGLSLAVEKPGFFIIDYNVPKKDVRFQFMNTIRIAEKPLNLTYIHMRGDNRTIVDGSFVIDPANKLSANYMVGTKNCKLKYTYVHGGIATFEPCYDVAKNMWDFAISHKLYGGDNLKATYQTSSKMLGLEWSNNSKSTGSFKVCASMNLAEELKPPKLTAETTWNLEL”, the protein production is reported as “not failed”.
In the case of “MKASSLAFSLLSAAFYLLWTPSTGLKTLNLGSCVIATNLQEIRNGFSEIRGSVQAKDGNIDIRILRRTESLQDTKPANRCCLLRHLLRLYLDRVFKNYQTPDHYTLRKISSLANSFLTIKKDLRLCHAHMTCHCGEEAMKKYSQILSHFEKLEPQAAVVKALGELDILLQWMEETE”, the protein production is reported as “failed”.
In the case of “MKATFQVPSITCNHCVDKIEKFVGEIEGVSFIDVSVEKKSVVVEFDAPATQDLIKEALLDAGQEVV”, the protein production is reported as “failed”.
For “MKATLAAPSSLTSLPYRTNSSFGSKSSLLFRSPSSSSSVSMTTTRGNVAVAAAATSTEALRKGIAEFYNETSGLWEEIWGDHMHHGFYDPDSSVQLSDSGHKEAQIRMIEESLRFAGVTDEEEEKKIKKVVDVGCGIGGSSRYLASKFGAECIGITLSPVQAKRANDLAAAQSLAHKASFQVADALDQPFEDGKFDLVWSMESGEHMPDKAKFVKELVRVAAPGGRIIIVTWCHRNLSAGEEALQPWEQNILDKICKTFYLPAWCSTDDYVNLLQSHSLQDIKCADWSENVAPFWPAVIRTALTWKGLVSLLRSGMKSIKGALTMPLMIEGYKKGVIKFGIITCQKPL”, the protein production was “failed”.
In the case of “MKAVFAKLGSDFFSTIVFVVLYFSTGNVALATIVAVLGAVGQFIYAKIKGQRLDVMAYASVALVVVLGGATLLTNDPRFVLIKPSVGHIAVGLLMLRRDWMLRYVPPIVAETIPDYVRIAGYAWAALMLLLGTGVIAAAMTGDIKVWTFYVMVIAPAFKVAAFAGQYLVFRIAIRSRRRAAVATAEPAASTPVTAEP”, the protein production is reported as “failed”.
